± gives the standard deviation of the averaged measurements.
Tests used:
[1] = tested on: MCF7; experiment: percentage of EdU-negative (G0-arrested) nuclei per well, 72 h; higher = more G0 arrest; settings: reference: sequence is the full UniProt precursor, the tested protein was the secreted form or ectodomain
[2] = tested on: hTERT-HMEC; experiment: as above; settings: reference: sequence is the full UniProt precursor, the tested protein was the secreted form or ectodomain
[3] = protein concentration 0.0225 µM
[4] = protein concentration 0.0305714 µM
[5] = protein concentration 0.305714 µM
[6] = protein concentration 0.0122857 µM
[7] = protein concentration 0.122857 µM
[8] = protein concentration 0.01425 µM
[9] = protein concentration 0.1425 µM
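Also: secreted proteins added to cultured cells, EdU pulse at the end, nuclei found by Hoechst imaging, EdU status from nuclear versus surrounding ring intensity ratio, PBS as neutral control.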

Sequence	percentage of EdU-negative [1, 3]	percentage of EdU-negative ([1]; protein concentration 0.225 µM)	percentage of EdU-negative [2, 3]	percentage of EdU-negative ([2]; protein concentration 0.225 µM)	further results
MKGSIFTLFLFSVLFAISEVRSKESVRLCGLEYIRTVIYICASSRWRRHQEGIPQAQQAETGNSFQLPHKREFSEENPAQNLPKVDASGEDRLWGGQMPTEELWKSKKHSVMSRQDLQTLCCTDGCSMTDLSALC [Q9Y5Q6]	25.5 ± 2.3%	27.6 ± 3%	5.011 ± 0.042%	4.97 ± 0.86%	–
MKGWGWLALLLGALLGTAWARRSQDLHCGACRALVDELEWEIAQVDPKKTIQMGSFRINPDGSQSVVEVPYARSEAHLTELLEEICDRMKEYGEQIDPSTHRKNYVRVVGRNGESSELDLQGIRIDSDISGTLKFACESIVEEYEDELIEFFSREADNVKDKLCSKRTDLCDHALHISHDEL [Q9Y2B0]	23.4 ± 3.1%	25.3 ± 1.3%	5.14 ± 0.16%	6.74 ± 0.6%	–
MKHSLNALLIFLIITSAWGGSKGPLDQLEKGGETAQSADPQWEQLNNKNLSMPLLPADFHKENTVTNDWIPEGEEDDDYLDLEKIFSEDDDYIDIVDSLSVSPTDSDVSAGNILQLFHGKSRIQRLNILNAKFAFNLYRVLKDQVNTFDNIFIAPVGISTAMGMISLGLKGETHEQVHSILHFKDFVNASSKYEITTIHNLFRKLTHRLFRRNFGYTLRSVNDLYIQKQFPILLDFKTKVREYYFAEAQIADFSDPAFISKTNNHIMKLTKGLIKDALENIDPATQMMILNCIYFKGSWVNKFPVEMTHNHNFRLNEREVVKVSMMQTKGNFLAANDQELDCDILQLEYVGGISMLIVVPHKMSGMKTLEAQLTPRVVERWQKSMTNRTREVLLPKFKLEKNYNLVESLKLMGIRMLFDKNGNMAGISDQRIAIDLFKHQGTITVNEEGTQATTVTTVGFMPLSTQVRFTVDRPFLFLIYEHRTSCLLFMGRVANPSRS	–	–	–	–	percentage of EdU-negative [1, 4]: 27.6 ± 0.28%; percentage of EdU-negative [1, 5]: 30 ± 1.5%; percentage of EdU-negative [2, 4]: 6.41 ± 0.77%; percentage of EdU-negative [2, 5]: 22.5 ± 9.3%
MKILILGIFLFLCSTPAWAKEKHYYIGIIETTWDYASDHGEKKLISVDTEHSNIYLQNGPDRIGRLYKKALYLQYTDETFRTTIEKPVWLGFLGPIIKAETGDKVYVHLKNLASRPYTFHSHGITYYKEHEGAIYPDNTTDFQRADDKVYPGEQYTYMLLATEEQSPGEGDGNCVTRIYHSHIDAPKDIASGLIGPLIICKKDSLDKEKEKHIDREFVVMFSVVDENFSWYLEDNIKTYCSEPEKVDKDNEDFQESNRMYSVNGYTFGSLPGLSMCAEDRVKWYLFGMGNEVDVHAAFFHGQALTNKNYRIDTINLFPATLFDAYMVAQNPGEWMLSCQNLNHLKAGLQAFFQVQECNKSSSKDNIRGKHVRHYYIAAEEIIWNYAPSGIDIFTKENLTAPGSDSAVFFEQGTTRIGGSYKKLVYREYTDASFTNRKERGPEEEHLGILGPVIWAEVGDTIRVTFHNKGAYPLSIEPIGVRFNKNNEGTYYSPNYNPQSRSVPPSASHVAPTETFTYEWTVPKEVGPTNADPVCLAKMYYSAVEPTKDIFTGLIGPMKICKKGSLHANGRQKDVDKEFYLFPTVFDENESLLLEDNIRMFTTAPDQVDKEDEDFQESNKMHSMNGFMYGNQPGLTMCKGDSVVWYLFSAGNEADVHGIYFSGNTYLWRGERRDTANLFPQTSLTLHMWPDTEGTFNVECLTTDHYTGGMKQKYTVNQCRRQSEDSTFYLGERTYYIAAVEVEWDYSPQREWEKELHHLQEQNVSNAFLDKGEFYIGSKYKKVVYRQYTDSTFRVPVERKAEEEHLGILGPQLHADVGDKVKIIFKNMATRPYSIHAHGVQTESSTVTPTLPGETLTYVWKIPERSGAGTEDSACIPWAYYSTVDQVKDLYSGLIGPLIVCRRPYLKVFNPRRKLEFALLFLVFDENESWYLDDNIKTYSDHPEKVNKDDEEFIESNKMHAINGRMFGNLQGLTMHVGDEVNWYLMGMGNEIDLHTVHFHGHSFQYKHRGVYSSDVFDIFPGTYQTLEMFPRTPGIWLLHCHVTDHIHAGMETTYTVLQNEDTKSG	–	–	–	–	percentage of EdU-negative [1, 6]: 22.7 ± 3%; percentage of EdU-negative [1, 7]: 29.9 ± 0.94%; percentage of EdU-negative [2, 6]: 5.56 ± 0.7%; percentage of EdU-negative [2, 7]: 7.89 ± 0.25%
MKISILLMFLWGLSCALPVTRYQNNESEDSEEWKGHLAQAPTPPLESSESSEGSKVSSEEQANEDPSDSTQSEEGLGSDDHQYIYRLAGGFSRSTGKGGDDKDDDEDDSGDDTFGDDDSGPGPKDRQEGGNSRLGSDEDSDDTIQASEESAPQGQDSAQDTTSESRELDNEDRVDSKPEGGDSTQESESEEHWVGGGSDGESSHGDGSELDDEGMQSDDPESIRSERGNSRMNSAGMKSKESGENSEQANTQDSGGSQLLEHPSRKIFRKSRISEEDDRSELDDNNTMEEVKSDSTENSNSRDTGLSQPRRDSKGDSQEDSKENLSQEESQNVDGPSSESSQEANLSSQENSSESQEEVVSESRGDNPDPTTSYVEDQEDSDSSEEDSSHTLSHSKSESREEQADSESSESLNFSEESPESPEDENSSSQEGLQSHSSSAESQSEESHSEEDDSDSQDSSRSKEDSNSTESKSSSEEDGQLKNIEIESRKLTVDAYHNKPIGDQDDNDCQDGY	–	–	–	–	percentage of EdU-negative ([1]; protein concentration 0.021 µM): 24.6 ± 0.6%; percentage of EdU-negative ([1]; protein concentration 0.21 µM): 26.3 ± 0.99%; percentage of EdU-negative ([2]; protein concentration 0.021 µM): 4.74 ± 0.51%; percentage of EdU-negative ([2]; protein concentration 0.21 µM): 14.1 ± 2.1%
MKITGGLLLLCTVVYFCSSSEAASLSPKKVDCSIYKKYPVVAIPCPITYLPVCGSDYITYGNECHLCTESLKSNGRVQFLHDGSC	23.6 ± 1.3%	24.5 ± 2.9%	5.21 ± 1.1%	6.62 ± 0.67%	–
MKITSTSCICPVLVCLCFVQRCYGTAHHSSIKVMRNQTKHIEGETEVHHRPKRGWVWNQFFVLEEHMGPDPQYVGKLHSNSDKGDGSVKYILTGEGAGTIFIIDDTTGDIHSTKSLDREQKTHYVLHAQAIDRRTNKPLEPESEFIIKVQDINDNAPKFTDGPYIVTVPEMSDMGTSVLQVTATDADDPTYGNSARVVYSILQGQPYFSVDPKTGVIRTALHNMDREAREHYSVVIQAKDMAGQVGGLSGSTTVNITLTDVNDNPPRFPQKHYQLYVPESAQVGSAVGKIKANDADTGSNADMTYSIINGDGMGIFSISTDKETREGILSLKKPLNYEKKKSYTLNIEGANTHLDFRFSHLGPFKDATMLKIIVGDVDEPPLFSMPSYLMEVYENAKIGTVVGTVLAQDPDSTNSLVRYFINYNVEDDRFFNIDANTGTIRTTKVLDREETPWYNITVTASEIDNPDLLSHVTVGIRVLDVNDNPPELAREYDIIVCENSKPGQVIHTISATDKDDFANGPRFNFFLDERLPVNPNFTLKDNEDNTASILTRRRRFSRTVQDVYYLPIMISDGGIPSLSSSSTLTIRVCACERDGRVRTCHAEAFLSSAGLSTGALIAILLCVLILLAIVVLFITLRRSKKEPLIISEEDVRENVVTYDDEGGGEEDTEAFDITALRNPSAAEELKYRRDIRPEVKLTPRHQTSSTLESIDVQEFIKQRLAEADLDPSVPPYDSLQTYAYEGQRSEAGSISSLDSATTQSDQDYHYLGDWGPEFKKLAELYGEIESERTT	–	–	–	–	percentage of EdU-negative [1, 8]: 26 ± 2.9%; percentage of EdU-negative [1, 9]: 37 ± 4.3%; percentage of EdU-negative [2, 8]: 5.06 ± 0.45%; percentage of EdU-negative [2, 9]: 7.93 ± 0.73%
MKKFFTVAILAGSVLSTAHGSLLNLKAMVEAVTGRSAILSFVGYGCYCGLGGRGQPKDEVDWCCHAHDCCYQELFDQGCHPYVDHYDHTIENNTEIVCSDLNKTECDKQTCMCDKNMVLCLMNQTYREEYRGFLNVYCQGPTPNCSIYEPPPEEVTCSHQSPAPPAPP [Q9BZM2]	24.06 ± 0.22%	26 ± 1.2%	5.18 ± 0.43%	5.34 ± 1.1%	–
